In patent publication US20250263675A1:

Legend:
[1] = target: recombinant human VEGF (R&D, 293-VE-010) (human) (UniProt P15692); test: Octet HTX biolayer interferometry in 1x kinetics buffer; antibody at 10 ug/mL in buffer as loading sample, recombinant human VEGF 200 to 3.125 nM (data of FIG. 3A); kdis Error printed 1.34E-07
[2] = target: recombinant human VEGF (R&D, 293-VE-010) (human) (UniProt P15692); test: Octet HTX biosensor; antibody prepared in conditioned medium and diluted to 10 ug/mL in 1x kinetics buffer, recombinant human VEGF 200 nM to 3.125 nM
[3] = target: recombinant human VEGF (R&D, 293-VE-010) (human) (UniProt P15692); test: Octet HTX biosensor, 1x kinetics buffer; antibody at 10 ug/mL in buffer, recombinant human VEGF 200 nM to 3.125 nM
[4] = target: recombinant human VEGF (R&D, 293-VE-010) (human) (UniProt P15692); test: Octet HTX biolayer interferometry; antibody prepared in conditioned medium at 100 ug/mL, diluted to 10 ug/mL in 1x kinetics buffer, as loading sample; recombinant human VEGF 200 to 3.125 nM (data of FIG. 3B); kdis Error printed 1.27E-07
[5] = target: recombinant human VEGF (R&D, 293-VE-010) (human) (UniProt P15692); test: Octet HTX biolayer interferometry in 1x kinetics buffer; antibody at 10 ug/mL in buffer as loading sample, recombinant human VEGF 200 to 3.125 nM (data of FIG. 3A); ka Error printed 7.60E+02
[6] = target: recombinant human VEGF (R&D, 293-VE-010) (human) (UniProt P15692); test: Octet HTX biolayer interferometry; antibody prepared in conditioned medium at 100 ug/mL, diluted to 10 ug/mL in 1x kinetics buffer, as loading sample; recombinant human VEGF 200 to 3.125 nM (data of FIG. 3B); ka Error printed 8.54E+02

Chain of UniProt P15692 (P15692 other isoform, or with tags, fused parts or gaps limits assumed): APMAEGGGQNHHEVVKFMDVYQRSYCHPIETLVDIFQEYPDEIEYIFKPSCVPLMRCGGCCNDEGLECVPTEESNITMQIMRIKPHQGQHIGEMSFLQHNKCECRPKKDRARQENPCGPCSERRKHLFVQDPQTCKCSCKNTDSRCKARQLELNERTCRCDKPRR

mouse anti-human VEGF monoclonal antibody (R&D, MAB293-100)
koff [1]: < 1e-07 s⁻¹
Kd [2]: < 1 pM
Kd [3]: < 1 pM
koff [4]: < 1e-07 s⁻¹
kon [5]: 232000 M⁻¹ s⁻¹
kon [6]: 286000 M⁻¹ s⁻¹
